Data published in US20110052582A1 (Hoffmann-La Roche, published 2011).

T1: Soluble CDCP1 extracellular domain (CDCP1-ECD) (SEQ ID NO:30) fused to Streptavidin Binding Protein (SBP) (human, UniProt Q9H5V8 30-663)
T1 construct: also called SBP-CDCP1-ECD
T1 sequence: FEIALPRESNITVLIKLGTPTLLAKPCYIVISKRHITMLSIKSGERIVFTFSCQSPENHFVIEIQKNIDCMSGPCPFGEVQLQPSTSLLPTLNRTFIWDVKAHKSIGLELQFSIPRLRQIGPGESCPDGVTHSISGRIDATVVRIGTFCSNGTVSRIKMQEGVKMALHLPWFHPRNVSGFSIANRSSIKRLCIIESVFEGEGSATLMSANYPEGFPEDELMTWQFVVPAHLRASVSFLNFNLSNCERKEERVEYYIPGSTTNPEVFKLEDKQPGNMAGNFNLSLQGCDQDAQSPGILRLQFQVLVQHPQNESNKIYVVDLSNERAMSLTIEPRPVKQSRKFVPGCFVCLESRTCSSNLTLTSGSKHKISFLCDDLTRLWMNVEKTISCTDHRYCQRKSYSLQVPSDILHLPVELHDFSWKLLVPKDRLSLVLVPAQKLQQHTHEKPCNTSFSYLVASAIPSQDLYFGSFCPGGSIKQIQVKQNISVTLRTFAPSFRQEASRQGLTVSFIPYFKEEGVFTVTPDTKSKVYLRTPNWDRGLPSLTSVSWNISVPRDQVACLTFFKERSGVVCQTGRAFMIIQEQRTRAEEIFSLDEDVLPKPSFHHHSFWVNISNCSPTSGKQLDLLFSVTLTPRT

B1: chHC4 / hLC4-f (antibody, V domains shown)
VH: EVQLVESGGDLVKPGGSLKLSCAASGFTFNSYGMSWVRQTPDKRLEWVATISSGGSYTYYPDSVKGRFTISRDNAKNTLYLQMSSLKSEDTAMYYCARHPDYDGVWFAYWGQGTLVTVSA
VL: DIQMTQSPSSLSASVGDRVTITCSVSSSVFYVHWYQQKPGKAPKLLIYDTSKLASGVPSRFSGSGSGTDYTFTISSLQPEDIATYYCQQWNSNPPTFGGGTKVEIK
B2: hHC4-d / hLC4-M (antibody, V domains shown)
VH: EVQLLESGGGLVQPGGSLRLSCAASGFTFNSYGMSWVRQAPGKGLEWVSTISSGGSYTYYPDSVKGRFTISRDNSKNTLYLQMNSLRAEDTAVYYCAKHPDYDGVWFAYWGQGTLVTVSS
VL: EIVLTQSPATLSLSPGERATMSCGASSSVFYLHWYQQKPGLAPRLWIYDTSKLASGIPDRFSGSGSGTDFTLTISRLEPEDFAVYYCQQWNSNPPTFGGGTKVEIK
B3: hHC4-K / hLC4-d (antibody, V domains shown)
VH: EVQLVESGGGLVKPGGSLRLSCAASGFTFNSYGMSWVRQAPGKGLEWVSSISSGGSYIYYADSVKGRFTISRDNAKNSLYLQMNSLRAEDTAVYYCARHPDYDGVWFAYWGQGTLVTVSS
VL: EIVMTQSPATLSVSPGERATLSCSVSSSVFYVHWYQQKPGQAPRLLIYDTSKLASGIPARFSGSGSGTEYTLTISSLQSEDFAVYYCQQWNSNPPTFGGGTKVEIK
B4: hHC4-I / hLC4-b (antibody, V domains shown)
VH: EVQLLESGGGLVQPGGSLRLSCAASGFTFNSYAMSWVRQAPGKGLEWVSAISSGGSYTYYADSVKGRFTISRDNSKNTLYLQMNSLRAEDTAVYYCAKHPDYDGVWFAYWGQGTLVTVSS
VL: EIVLTQSPATLSLSPGERATLSCSVSSSVFYVHWYQQKPGQAPRLLIYDTSKLASGIPARFSGSGSGTDYTLTISSLEPEDFAVYYCQQWNSNPPTFGGGTKVEIK
B5: hHC4-b / hLC4-c (antibody, V domains shown)
VH: EVQLVESGGGLVKPGGSLRLSCAASGFTFNSYSMNWVRQAPGKGLEWVSSISSGGSYIYYADSVKGRFTISRDNAKNSLYLQMNSLRAEDTAVYYCARHPDYDGVWFAYWGQGTLVTVSS
VL: EIVMTQSPATLSVSPGERATLSCSVSSSVFYVHWYQQKPGQAPRLLIYDTSKLASGIPARFSGSGSGTEFTLTISSLQSEDFAVYYCQQWNSNPPTFGGGTKVEIK
B6: hHC4-03 / hLC4-d (antibody, V domains shown)
VH: EVQLLESGGGLVQPGGSLRLSCAASGFTFNSYGMSWVRQAPGKGLEWVSAISSGGSYTYYPDSVKGRFTISRDNSKNTLYLQMNSLRAEDTAVYYCAKHPDYDGVWFAYWGQGTLVTVSS
VL: EIVMTQSPATLSVSPGERATLSCSVSSSVFYVHWYQQKPGQAPRLLIYDTSKLASGIPARFSGSGSGTEYTLTISSLQSEDFAVYYCQQWNSNPPTFGGGTKVEIK
B7: hHC4-07 / hLC4-c (antibody, V domains shown)
VH: EVQLLESGGGLVQPGGSLRLSCAASGFTFNSYAMSWVRQAPGKGLEWVSTISSGGSYTYYPDSVKGRFTISRDNSKNTLYLQMNSLRAEDTAVYYCAKHPDYDGVWFAYWGQGTLVTVSS
VL: EIVMTQSPATLSVSPGERATLSCSVSSSVFYVHWYQQKPGQAPRLLIYDTSKLASGIPARFSGSGSGTEFTLTISSLQSEDFAVYYCQQWNSNPPTFGGGTKVEIK
B8: hHC4-04 / hLC4-c (antibody, V domains shown)
VH: EVQLLESGGGLVQPGGSLRLSCAASGFTFNSYGMSWVRQAPGKGLEWVSTISSGGSYTYYPDSVKGRFTISRDNSKNTLYLQMNSLRAEDTAVYYCARHPDYDGVWFAYWGQGTLVTVSS
VL: EIVMTQSPATLSVSPGERATLSCSVSSSVFYVHWYQQKPGQAPRLLIYDTSKLASGIPARFSGSGSGTEFTLTISSLQSEDFAVYYCQQWNSNPPTFGGGTKVEIK
B9: hHC4-H / hLC4-d (antibody, V domains shown)
VH: EVQLVESGGGLVQPGGSLRLSCAASGFTFNSYGMSWVRQAPGKGLEWVATISSGGSYKYYVDSVKGRFTISRDNAKNSLYLQMNSLRAEDTAVYYCARHPDYDGVWFAYWGQGTLVTVSS
VL: EIVMTQSPATLSVSPGERATLSCSVSSSVFYVHWYQQKPGQAPRLLIYDTSKLASGIPARFSGSGSGTEYTLTISSLQSEDFAVYYCQQWNSNPPTFGGGTKVEIK
notes: also called Humanized CUB4 Antibody No. 124
B10: hHC4-b / hLC4-d (antibody, V domains shown)
VH: EVQLVESGGGLVKPGGSLRLSCAASGFTFNSYSMNWVRQAPGKGLEWVSSISSGGSYIYYADSVKGRFTISRDNAKNSLYLQMNSLRAEDTAVYYCARHPDYDGVWFAYWGQGTLVTVSS
VL: EIVMTQSPATLSVSPGERATLSCSVSSSVFYVHWYQQKPGQAPRLLIYDTSKLASGIPARFSGSGSGTEYTLTISSLQSEDFAVYYCQQWNSNPPTFGGGTKVEIK
B11: hHC4-H / hLC4-c (antibody, V domains shown)
VH: EVQLVESGGGLVQPGGSLRLSCAASGFTFNSYGMSWVRQAPGKGLEWVATISSGGSYKYYVDSVKGRFTISRDNAKNSLYLQMNSLRAEDTAVYYCARHPDYDGVWFAYWGQGTLVTVSS
VL: EIVMTQSPATLSVSPGERATLSCSVSSSVFYVHWYQQKPGQAPRLLIYDTSKLASGIPARFSGSGSGTEFTLTISSLQSEDFAVYYCQQWNSNPPTFGGGTKVEIK
notes: also called Humanized CUB4 Antibody No. 113
B12: hHC4-04 / hLC4-d (antibody, V domains shown)
VH: EVQLLESGGGLVQPGGSLRLSCAASGFTFNSYGMSWVRQAPGKGLEWVSTISSGGSYTYYPDSVKGRFTISRDNSKNTLYLQMNSLRAEDTAVYYCARHPDYDGVWFAYWGQGTLVTVSS
VL: EIVMTQSPATLSVSPGERATLSCSVSSSVFYVHWYQQKPGQAPRLLIYDTSKLASGIPARFSGSGSGTEYTLTISSLQSEDFAVYYCQQWNSNPPTFGGGTKVEIK
B13: hHC4-07 / hLC4-d (antibody, V domains shown)
VH: EVQLLESGGGLVQPGGSLRLSCAASGFTFNSYAMSWVRQAPGKGLEWVSTISSGGSYTYYPDSVKGRFTISRDNSKNTLYLQMNSLRAEDTAVYYCAKHPDYDGVWFAYWGQGTLVTVSS
VL: EIVMTQSPATLSVSPGERATLSCSVSSSVFYVHWYQQKPGQAPRLLIYDTSKLASGIPARFSGSGSGTEYTLTISSLQSEDFAVYYCQQWNSNPPTFGGGTKVEIK
B14: hHC4-d / hLC4-d (antibody, V domains shown)
VH: EVQLLESGGGLVQPGGSLRLSCAASGFTFNSYGMSWVRQAPGKGLEWVSTISSGGSYTYYPDSVKGRFTISRDNSKNTLYLQMNSLRAEDTAVYYCAKHPDYDGVWFAYWGQGTLVTVSS
VL: EIVMTQSPATLSVSPGERATLSCSVSSSVFYVHWYQQKPGQAPRLLIYDTSKLASGIPARFSGSGSGTEYTLTISSLQSEDFAVYYCQQWNSNPPTFGGGTKVEIK
B15: hHC4-d / hLC4-c (antibody, V domains shown)
VH: EVQLLESGGGLVQPGGSLRLSCAASGFTFNSYGMSWVRQAPGKGLEWVSTISSGGSYTYYPDSVKGRFTISRDNSKNTLYLQMNSLRAEDTAVYYCAKHPDYDGVWFAYWGQGTLVTVSS
VL: EIVMTQSPATLSVSPGERATLSCSVSSSVFYVHWYQQKPGQAPRLLIYDTSKLASGIPARFSGSGSGTEFTLTISSLQSEDFAVYYCQQWNSNPPTFGGGTKVEIK
B16: hHC4-03 / hLC4-c (antibody, V domains shown)
VH: EVQLLESGGGLVQPGGSLRLSCAASGFTFNSYGMSWVRQAPGKGLEWVSAISSGGSYTYYPDSVKGRFTISRDNSKNTLYLQMNSLRAEDTAVYYCAKHPDYDGVWFAYWGQGTLVTVSS
VL: EIVMTQSPATLSVSPGERATLSCSVSSSVFYVHWYQQKPGQAPRLLIYDTSKLASGIPARFSGSGSGTEFTLTISSLQSEDFAVYYCQQWNSNPPTFGGGTKVEIK
B17: chHC4 / hLC4-I (antibody, V domains shown)
VH: EVQLVESGGDLVKPGGSLKLSCAASGFTFNSYGMSWVRQTPDKRLEWVATISSGGSYTYYPDSVKGRFTISRDNAKNTLYLQMSSLKSEDTAMYYCARHPDYDGVWFAYWGQGTLVTVSA
VL: EIVMTQSPATLSLSPGERATLSCRASSSVFYLSWYQQKPGQAPRLWIYDTSKLASGIPARFSGSGSGTDFTLTISSLQPEDFAVYYCQQWNSNPPTFGGGTKVEIK
B18: hHC4-d / hLC4-b (antibody, V domains shown)
VH: EVQLLESGGGLVQPGGSLRLSCAASGFTFNSYGMSWVRQAPGKGLEWVSTISSGGSYTYYPDSVKGRFTISRDNSKNTLYLQMNSLRAEDTAVYYCAKHPDYDGVWFAYWGQGTLVTVSS
VL: EIVLTQSPATLSLSPGERATLSCSVSSSVFYVHWYQQKPGQAPRLLIYDTSKLASGIPARFSGSGSGTDYTLTISSLEPEDFAVYYCQQWNSNPPTFGGGTKVEIK
B19: hHC4-d / hLC4-a (antibody, V domains shown)
VH: EVQLLESGGGLVQPGGSLRLSCAASGFTFNSYGMSWVRQAPGKGLEWVSTISSGGSYTYYPDSVKGRFTISRDNSKNTLYLQMNSLRAEDTAVYYCAKHPDYDGVWFAYWGQGTLVTVSS
VL: EIVLTQSPATLSLSPGERATLSCSVSSSVFYVHWYQQKPGQAPRLLIYDTSKLASGIPARFSGSGSGTDFTLTISSLEPEDFAVYYCQQWNSNPPTFGGGTKVEIK

Each binder was assayed against T1, Soluble CDCP1 extracellular domain … (assay: ELISA on captured SBP-CDCP1-ECD, ratio relative to chimeric CUB4 (chHC4)).
Summary of the method: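 Streptavidin plates coated overnight at 2–8° C with SBP-CDCP1-ECD HEK293 supernatant (1:15–1:40). Antibodies, undiluted or 12-step dilution, bound 90 min at room temperature; HRP anti-human IgG 1 h, ABTS read at 405/492 nm, signal expressed relative to chimeric chHC4 reference.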

Compared with B1, B2 is higher in relative binding ratio: 0.24 for the first, 0.8 for the second.

B4 and B6 are the same in relative binding ratio: 0.07 for the first, 0.07 for the second.

First: B7
Second: B8
The relative binding ratio of the first is lower: 0.04 for the first, 0.33 for the second.

Compared with B9, B11 is higher in relative binding ratio: 0.34 for the first, 0.44 for the second.

First: B12
Second: B13
The relative binding ratio of the first is higher: 0.41 for the first, 0.04 for the second.

Compared with B14, B15 is higher in relative binding ratio: 0.41 for the first, 0.45 for the second.

First: B16
Second: B18
The relative binding ratio of the first is lower: 0.07 for the first, 0.38 for the second.

B19 gave a relative binding ratio of 0.34.

B3: no binding.
B5: no binding.
B10: no binding.
B17: no binding.
